Legend:
Assay in all cases: SPR; Biacore 3000; antibodies immobilised on a CM5 chip by amine coupling at ~3000 RU; huFcRn flowed at 5 μl/min for 50 min, 19.5 nM to 10 μM, in PBS pH 5.8 with 5 mM EDTA and 0.05% Tween 20; steady-state fit
Q311AzK (human) = molecular target: Q311AzK (human)
K248AzK-mPEG (human) = molecular target: K248AzK-mPEG (human)
N384AzK-CR110 (human) = molecular target: N384AzK-CR110 (human)
M252AzK-CR110 (human) = molecular target: M252AzK-CR110 (human)
K248AzK (human) = molecular target: K248AzK (human)
M252AzK (human) = molecular target: M252AzK (human)
L309AzK (human) = molecular target: L309AzK (human)
L309AzK-CR110 (human) = molecular target: L309AzK-CR110 (human)
[1] = molecular target: wild-type antibody (human)
M252AzK-mPEG (human) = molecular target: M252AzK-mPEG (human)
K288AzK-CR110 (human) = molecular target: K288AzK-CR110 (human)
N286AzK-mPEG (human) = molecular target: N286AzK-mPEG (human)
Q311AzK-mPEG (human) = molecular target: Q311AzK-mPEG (human)
N384AzK (human) = molecular target: N384AzK (human)
L309AzK-mPEG (human) = molecular target: L309AzK-mPEG (human)
S254AzK (human) = molecular target: S254AzK (human)
N434AzK (human) = molecular target: N434AzK (human)
N384AzK-mPEG (human) = molecular target: N384AzK-mPEG (human)
K288AzK (human) = molecular target: K288AzK (human)
Q311AzK-CR110 (human) = molecular target: Q311AzK-CR110 (human)
S254AzK-CR110 (human) = molecular target: S254AzK-CR110 (human)

Recombinant human FcRn (from UniProt P55899 24-297; P61769 21-119) (receptor)
Kd (Q311AzK (human)): 323 nM
Kd (K248AzK-mPEG (human)): 907 nM
Kd (N384AzK-CR110 (human)): 702 nM
Kd (M252AzK-CR110 (human)): 2060 nM
Kd (K248AzK (human)): 378 nM
Kd (M252AzK (human)): 249 nM
Kd (L309AzK (human)): 437 nM
Kd (L309AzK-CR110 (human)): 2040 nM
Kd [1]: 538 nM
Kd (M252AzK-mPEG (human)): 3580 nM
Kd (K288AzK-CR110 (human)): 558 nM
Kd (N286AzK-mPEG (human)): 2830 nM
Kd (Q311AzK-mPEG (human)): 3870 nM
Kd (N384AzK (human)): 565 nM
Kd (L309AzK-mPEG (human)): 3270 nM
Kd (S254AzK (human)): 465 nM
Kd (N434AzK (human)): 734 nM
Kd (N384AzK-mPEG (human)): 756 nM
Kd (K288AzK (human)): 418 nM
Kd (Q311AzK-CR110 (human)): 2050 nM
Kd (S254AzK-CR110 (human)): 2870 nM

— publication PMC5437253
